One assay deals with A431 cells. The assay can be described thus: Cell cycle arrest test (gene transfection, DNA content by FACS). It is filed as cell-based. As to conditions: gene transfected into A431 cells with Lipofectamine 2000; compared to p16WT; FIGS. 3 and 4. As to the method: A vector containing a gene encoding ‘p16M7’ or ‘p16WT’ (wild-type) was transfected into A431 cells (ATCC) by liposomal transfection method using Lipofectamine 2000 (Invitrogen) (see Example 1). The transfection was performed according to a manual provided by Invitrogen. 24 hours after the transfection, the medium was exchanged with a fresh medium. At 24 hours 48 hours thereafter, DNA contents were measured by FACS.
After transfecting the p16M7 gene or p16WT gene into cells using Lipo2000, the presence of cell cycle arrest was observed. […] For labeling, pEGFP-C2 vector (Clontech) for p16WT and p16M7 (indicated as “p16 Mut” in FIG. 3). […] FIG. 4 contains graphs quantitatively showing the degree of cell cycle arrest of FIG. 3, wherein “% frequency” of Y axis refers to a value of cell population obtained through Flow jo software, each symbol in X axis refers to the follows: C2-6: using EGFP only (6 ul), C2-10: using EGFP only (10 ul), Mut: using p16M7 (6 ul or 10 ul) and WT: using p16WT (6 ul or 10 ul).

The target of a further assay is T1, EGFR present in A431 (Homo sapiens, UniProt P00533).
T1 construct: EGFR present in A431; host or cells: A431
Kind of assay: Tumor cell targeting test (confocal imaging of protein binding to A431 cells). It counts as cell-based. The conditions noted are these: A431 cells treated with 7.5 or 15 ug/ml for one hour; fluorescent imaging, FIG. 2; positive control Erbitux.

A further assay has as its system MDA-MB-231 xenograft. The assay can be described thus: Anticancer effect in MDA-MB-231 xenograft mouse model. It is filed as in vivo, BALB/c nude mouse. As to conditions: 75 uM/0.1 ml/mouse administered to the tumor tissue once a day. As for the experimental part:
To examine the anticancer effect of the conjugate of Example 2, a xenograft mouse model was employed. The xenograft mouse model was prepared by an […] injection of intractable breast cancer cell line MDA-MB-231 into breast tissue of 6-week old BALB/c nude mouse to form a tumor tissue.
In particular, 8×10^6 cells (in 0.08 ml of PBS with matrigel) of MDA-MB-231 (ATCC) were […] of 6-week old BALB/c nude mouse to prepare a xenograft mouse model (Orthotopic mouse model). When the tumor size reaches […], the xenograft mouse model was used in the following experiment.
The obtained results are shown in FIG. 7, and the degree (%) of tumor size reduction (tumor growth inhibition; TGI) compared to the buffer administered group calculated from the results of FIG. 7 was shown in Table 4: […]

B1: p16M7: Human p16 protein variant with seven substitutions for improved solubility (SEQ ID NO: 2) (protein)
chain: MEPAAGSSMEPSADKLATAAARGRVEEVRALLEAGADPNAPNSYGRRPIQVMMMGSARVAELLLKHGAEPNSADPATSTRPVHDAAREGFLDTLVVLHRAGARLDARDAWGRTPVDLAEELGHRDVARYLRAAAGGTRGSNHARIDAAEGPSDIPD
modifications: Synthetic Human p16 Variant
Consider B1, for which, in the assay with A431 cells, the “cell cycle arrest effect” value was “maintaining the cell cycle arrest effect”.

B2: Darpin: Negative control; Mock Darpin having no binding target; SEQ ID NO: 43 (protein)
chain: GSDLGKKLLEAARAGQDDEVRILMANGADVNAEDKVGLTPLHLAAMNDHLEIVEVLLKNGADVNAIDAIGETPLHLVAMYGHLEIVEVLLKHGADVNAQDKFGKTAFDISIDNGNEDLAEILQKLN
modifications: Synthetic Non-EGFR targeting DARPin
As to B2, the “binding ability to EGFR present in A431” value in the assay with EGFR present in A431 is reported as “little binding ability”.

B3: D(EGFR)-M9R-MTS-NLS-p16M7: Conjugate: anti-EGFR DARPin (SEQ ID NO: 7), MMP9 cleavage site M9R, MTS-NLS fusion peptide, p16 variant p16M7; SEQ ID NO: 35 (protein)
chain: DLGKKLLEAARAGQDDEVRILMANGADVNADDTWGWTPLHLAAYQGHLEIVEVLLKNGADVNAYDYIGWTPLHLAADGHLEIVEVLLKNGADVNASDYIGDTPLHLAAHNGHLEIVEVLLKHGADVNAQDKFGKTAFDISIDNGNEDLAEILQSGKIPRTLTAAAVALLPAVLLALLAPKKKRKMEPAAGSSMEPSADKLATAAARGRVEEVRALLEAGADPNAPNSYGRRPIQVMMMGSARVAELLLKHGAEPNSADPATSTRPVHDAAREGFLDTLVVLHRAGARLDARDAWGRTPVDLAEELGHRDVARYLRAAAGGTRGSNHARIDAAEGPSDIPD
modifications: Synthetic Conjugate (anti-EGFR DARPin-M9R- MTS-NLS-p16M7)
For B3, the “increased anticancer effect compared to the control [Darpin(EGFR)]” value in the assay on MDA-MB-231 xenograft (versus D(EGFR) group) is “about 21.4%”.

B4: D(EGFR)-M9R-p16M7: Comparison conjugate lacking MTS-NLS: SEQ ID NO: 7-SEQ ID NO: 26-SEQ ID NO: 2 (protein)
chain: DLGKKLLEAARAGQDDEVRILMANGADVNADDTWGWTPLHLAAYQGHLEIVEVLLKNGADVNAYDYIGWTPLHLAADGHLEIVEVLLKNGADVNASDYIGDTPLHLAAHNGHLEIVEVLLKHGADVNAQDKFGKTAFDISIDNGNEDLAEILQSGKIPRTLTAMEPAAGSSMEPSADKLATAAARGRVEEVRALLEAGADPNAPNSYGRRPIQVMMMGSARVAELLLKHGAEPNSADPATSTRPVHDAAREGFLDTLVVLHRAGARLDARDAWGRTPVDLAEELGHRDVARYLRAAAGGTRGSNHARIDAAEGPSDIPD
modifications: Synthetic anti-EGFR DARPin-01; Synthetic MMP9 cleavage region; Synthetic Human p16 Variant
Regarding B4, the “degree (%) of tumor size reduction (tumor growth inhibition; TGI) compared to the buffer administered group” value in the assay on MDA-MB-231 xenograft (n=10, calculated from FIG. 7) is given as 50.0%.

These data come from patent publication US9617344B2, “Fusion protein comprising targeting moiety, cleavage site, and cell membrane penetrating domain, and use thereof” (Samsung Electronics Co., Ltd., priority 2014, dated 2017).
